Laboratory results: patent EP3080145B1

B1: Trichoderma reesei cellobiohydrolase I (enzyme, UniProt P62694 18-513, looked up)
chain: QSACTLQSETHPPLTWQKCSSGGTCTQQTGSVVIDANWRWTHATNSSTNCYDGNTWSSTLCPDNETCAKNCCLDGAAYASTYGVTTSGNSLSIGFVTQSAQKNVGARLYLMASDTTYQEFTLLGNEFSFDVDVSQLPCGLNGALYFVSMDADGGVSKYPTNTAGAKYGTGYCDSQCPRDLKFINGQANVEGWEPSSNNANTGIGGHGSCCSEMDIWEANSISEALTPHPCTTVGQEICEGDGCGGTYSDNRYGGTCDPDGCDWNPYRLGNTSFYGPGSSFTLDTTKKLTVVTQFETSGAINRYYVQNGVTFQQPNAELGSYSGNELNDDYCTAEEAEFGGSSFSDKGGLTQFKKATSGGMVLVMSLWDDYYANMLWLDSTYPTNETSSTPGAVRGSCSTSSGVPAQVESQSPNAKVTFSNIKFGPIGSTGNPSGGNPPGGNRGTTTTRRPATTTGSSPGPTQSHYGQCGGIGYSGPTVCASGTTCQVLNPYYSQCL

Legend:
[1] = target: HFBI variant D40Q/D43N (Trichoderma reesei) (UniProt P52754); assay: QCM-D, enzyme injected over adsorbed D40Q/D43N layer, pH series
[2] = target: HFBI variant D40Q/D43N (Trichoderma reesei) (UniProt P52754); assay: QCM-D, enzyme injected over adsorbed D40Q/D43N layer, around pH 5

Chain of UniProt P52754 (P52754 23-97 D62Q/D65N, form in doubt): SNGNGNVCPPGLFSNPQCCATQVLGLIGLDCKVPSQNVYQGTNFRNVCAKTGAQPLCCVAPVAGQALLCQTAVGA

Molecule	adsorbed mass [1] [ng/cm^2]	maximum adsorption (adsorbed mass) [2] [ng/cm^2]
Trichoderma reesei xylanase II (from UniProt P36217 34-223) (enzyme)	55 to 100	
B1		600
